In patent publication US20240409635A1 (VIBRANT PHARMA, published 2024) one finds Kd, koff and kon data, which are given here for five molecules.

What all share (test): BLI, antibody on AHC sensor, antigen as analyte
In test [1] the target is T1, recombinant human protein CD3ε/δ (ACRO systems, CDD-H52W1) (human, UniProt P07766 23-126; P04234 22-105).
T1 construct: Bought heterodimer

Test [2] concerns the target T2, recombinant human tumor antigen CEACAM-6 (ACRO systems, CE6-H5223) (human, UniProt P40199 35-320).
T2 construct: Bought
T2 sequence (looked up): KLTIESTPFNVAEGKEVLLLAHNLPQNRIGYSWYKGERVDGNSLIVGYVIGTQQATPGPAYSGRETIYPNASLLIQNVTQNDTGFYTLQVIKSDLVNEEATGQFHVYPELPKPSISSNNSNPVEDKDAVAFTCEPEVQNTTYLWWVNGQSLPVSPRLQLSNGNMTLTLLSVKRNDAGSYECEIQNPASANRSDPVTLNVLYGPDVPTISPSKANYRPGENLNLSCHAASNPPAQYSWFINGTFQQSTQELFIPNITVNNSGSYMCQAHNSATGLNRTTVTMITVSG

In test [3] the target is T3, recombinant human tumor antigen HER2 (ERBB2, ACRO systems, HE2-H5212) (human, UniProt P04626 23-652).
T3 construct: Bought

Test [4] concerns the target T1, recombinant human protein CD3ε/δ (ACRO …). As for the experimental part:
(§1) Antibodies were first captured onto an anti-human IgG Fc coated AHC biosensor (Anti-hIgG Fc, Sartorius, 18-5060). Antibodies were diluted to 5 μg/mL and 1.5 nm protein was coupled to the AHC sensor surface in 0.02% PBST.
(§2) After the sensor captures the antibodies, it binds and dissociates with different concentrations of analytes to obtain the KD value of the interaction. The experimental parameters are as follows: Baseline1: 60 s, Loading: 240 s, Baseline2: 180 s, Association: 240 s, Dissociation: 600 s, High sensitivity kinetics: 2 Hz. Kinetic constants were derived based on the rate equation for 1:1 Langmuir binding to obtain equilibrium dissociation constants (KD). The Data Analysis HT 12 software (Sartorius, 50-5029) was used to simultaneously fit binding and dissociation curves to calculate Kₒₙ and Koff. The affinity KD was calculated based on the below formula: KD=Koff/Kₒₙ.
This is another data set of the same source.

Test [5] addresses T4, recombinant human tumor antigen CEA (CEACAM-5/CD66e, ACRO systems, CE5-H5226) (human, UniProt P06731 35-685).
T4 construct: Bought
T4 sequence (looked up): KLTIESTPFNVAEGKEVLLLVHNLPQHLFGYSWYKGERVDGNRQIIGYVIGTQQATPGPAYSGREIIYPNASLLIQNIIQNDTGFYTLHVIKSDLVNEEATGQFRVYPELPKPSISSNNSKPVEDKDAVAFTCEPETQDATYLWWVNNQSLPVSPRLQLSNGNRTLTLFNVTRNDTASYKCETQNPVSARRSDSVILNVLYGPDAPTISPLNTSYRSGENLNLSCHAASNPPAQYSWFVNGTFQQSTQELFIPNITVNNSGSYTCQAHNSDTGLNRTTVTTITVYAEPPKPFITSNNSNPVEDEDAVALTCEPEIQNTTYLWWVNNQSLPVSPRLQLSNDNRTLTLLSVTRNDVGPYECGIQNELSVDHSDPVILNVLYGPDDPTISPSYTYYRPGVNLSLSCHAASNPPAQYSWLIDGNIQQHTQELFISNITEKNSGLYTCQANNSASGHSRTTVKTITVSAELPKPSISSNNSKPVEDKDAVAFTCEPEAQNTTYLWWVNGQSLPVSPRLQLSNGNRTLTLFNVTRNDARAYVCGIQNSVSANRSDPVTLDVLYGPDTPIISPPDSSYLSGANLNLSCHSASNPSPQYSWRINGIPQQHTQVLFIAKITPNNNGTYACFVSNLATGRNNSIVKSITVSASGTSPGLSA
On the procedure:
as §1, §2

Test [6] has as its target T3, recombinant human tumor antigen HER2 …. On the procedure:
as §1, §2
This is another data set of the same source.

Changes are numbered by the printed parent chain. Read-outs that look alike come from different tables or passages of the source.

T1 sequence (P07766 23-126, stated change not applied, chain 1 of 2): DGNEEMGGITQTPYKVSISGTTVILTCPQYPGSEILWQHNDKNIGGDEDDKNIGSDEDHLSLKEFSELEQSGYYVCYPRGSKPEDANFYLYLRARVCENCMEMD
T1 sequence (P04234 22-105, stated change not applied, chain 2 of 2): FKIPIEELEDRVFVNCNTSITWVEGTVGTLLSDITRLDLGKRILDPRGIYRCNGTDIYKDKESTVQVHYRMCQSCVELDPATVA

B1: unilateral CD3/CEA-CAM6/HER2 trispecific antibody 711 (other)
chain 1: QVQLVQSGGGLVQAGGSLRLSCAASGRTFSSYAMAWFRQAPGKEREFVAAISWSGANIYVADSVKGRFTISRDNAKDTVYLQMNSLKPEDTAVYYCAVKLGFAPVEERQYDYWGQGTQVTVSSGGGGSGGGGSEVKLLESGGGLVQPKGSLKLSCAASGFTFNTYAMNWVRQAPGKGLEWVARIRSKYNNYATYYADSVKDRFTISRDDSQSILYLQMNNLKTEDTAMYYCVRHGNFGNSYVSWFAYWGQGTLVTVSSASTKGPSVFPLAPCSRSTSESTAALGCLVKDYFPEPVTVSWNSGALTSGVHTFPAVLQSSGLYSLSSVVTVPSSSLGTKTYTCNVDHKPSNTKVDKRVESKYGPPCPPCPAPEAAGGPSVFLFPPKPKDTLMISRTPEVTCVVVDVSQEDPEVQFNWYVDGVEVHNAKTKPREEQFNSTYRVVSVLTVLHQDWLNGKEYKCKVSNKGLPSSIEKTISKAKGQPREPQVYTLPPCQEEMTKNQVSLWCLVKGFYPSDIAVEWESNGQPENNYKTTPPVLDSDGSFFLYSRLTVDKSRWQEGNVFSCSVMHEALHNHYTQKSLSLSL
chain 2: QVKLEESGGGLVQAGGSLRLSCRTSGRTNSVYTMGWFRQAPGKEREFVAQIMWGAGTNTHYADSVKGRFTISRDSAESTVYLQMNSLKPEDTAVYYCAANRGIPIAGRQYDYWGQGTQVTVSSESKYGPPCPPCPAPEAAGGPSVFLFPPKPKDTLMISRTPEVTCVVVDVSQEDPEVQFNWYVDGVEVHNAKTKPREEQFNSTYRVVSVLTVLHQDWLNGKEYKCKVSNKGLPSSIEKTISKAKGQPREPQVCTLPPSQEEMTKNQVSLSCAVKGFYPSDIAVEWESNGQPENNYKTTPPVLDSDGSFFLVSRLTVDKSRWQEGNVFSCSVMHEALHNRFTQKSLSLSL
chain 3: QAVVTQESALTTSPGETVTLTCRSSTGAVTTSNYANWVQEKPDHLFTGLIGGTNKRAPGVPARFSGSLIGDKAALTITGAQTEDEAIYFCALWYSNLWVFGGGTKVEIKRTVAAPSVFIFPPSDEQLKSGTASVVCLLNNFYPREAKVQWKVDNALQSGNSQESVTEQDSKDSTYSLSSTLTLSKADYEKHKVYACEVTHQGLSSPVTKSFNRGEC
With B1, the Kd – broadly, the equilibrium constant for the complex coming apart – in test [1] worked out at 1.41 nM; in test [2] it was 4.52 nM; in test [3] it was 38.9 nM. Further, the values for the koff in test [1], in test [2] and in test [3] were 0.000516 s⁻¹, 0.00254 s⁻¹ and 0.00888 s⁻¹, respectively. Besides, the kon (usually the second-order rate constant of association) turned out to be 367000 M⁻¹ s⁻¹ in test [1], 562000 M⁻¹ s⁻¹ in test [2] and 228000 M⁻¹ s⁻¹ in test [3].

B2: unilateral CD3/CEA/HER2 trispecific antibody 610 (other)
chain 1: EVQLVESGGGFVQAGESLTLSCTSSTLTFTPYRMAWYRQAPGKQRDLVADISSGDGRTTNYADFAKGRFTISRDNIKNTVFLRMTNLKPEDTAVYYCNTFVSFVGIARSWGQGTQVTVSSESKYGPPCPPCPAPEAAGGPSVFLFPPKPKDTLMISRTPEVTCVVVDVSQEDPEVQFNWYVDGVEVHNAKTKPREEQFNSTYRVVSVLTVLHQDWLNGKEYKCKVSNKGLPSSIEKTISKAKGQPREPQVYTLPPCQEEMTKNQVSLWCLVKGFYPSDIAVEWESNGQPENNYKTTPPVLDSDGSFFLYSRLTVDKSRWQEGNVFSCSVMHEALHNHYTQKSLSLSL
chain 2: EVKLLESGGGLVQPKGSLKLSCAASGFTFNTYAMNWVRQAPGKGLEWVARIRSKYNNYATYYADSVKDRFTISRDDSQSILYLQMNNLKTEDTAMYYCVRHGNFGNSYVSWFAYWGQGTLVTVSSASTKGPSVFPLAPCSRSTSESTAALGCLVKDYFPEPVTVSWNSGALTSGVHTFPAVLQSSGLYSLSSVVTVPSSSLGTKTYTCNVDHKPSNTKVDKRVESKYGPPCPPCPAPEAAGGPSVFLFPPKPKDTLMISRTPEVTCVVVDVSQEDPEVQFNWYVDGVEVHNAKTKPREEQFNSTYRVVSVLTVLHQDWLNGKEYKCKVSNKGLPSSIEKTISKAKGQPREPQVCTLPPSQEEMTKNQVSLSCAVKGFYPSDIAVEWESNGQPENNYKTTPPVLDSDGSFFLVSRLTVDKSRWQEGNVFSCSVMHEALHNRFTQKSLSLSL
chain 3: QVQLVQSGGGLVQAGGSLRLSCAASGRTFSSYAMAWFRQAPGKEREFVAAISWSGANIYVADSVKGRFTISRDNAKDTVYLQMNSLKPEDTAVYYCAVKLGFAPVEERQYDYWGQGTQVTVSSGGGGSGGGGSQAVVTQESALTTSPGETVTLTCRSSTGAVTTSNYANWVQEKPDHLFTGLIGGTNKRAPGVPARFSGSLIGDKAALTITGAQTEDEAIYFCALWYSNLWVFGGGTKVEIKRTVAAPSVFIFPPSDEQLKSGTASVVCLLNNFYPREAKVQWKVDNALQSGNSQESVTEQDSKDSTYSLSSTLTLSKADYEKHKVYACEVTHQGLSSPVTKSFNRGEC
With B2, in test [4], the Kd was found to be 1.47 nM; the koff – broadly, a measure of how fast the partners let go of each other – was 0.000402 s⁻¹; the kon is 273000 M⁻¹ s⁻¹. Besides, in test [5], the Kd turned out to be 0.153 nM, the koff was 8.05e-05 s⁻¹ and the kon was 525000 M⁻¹ s⁻¹. Also, in test [6], the Kd was 53.5 nM, the koff turned out to be 0.00914 s⁻¹ and the kon worked out at 171000 M⁻¹ s⁻¹.

B3: unilateral CD3/CEA-CAM6/HER2 trispecific antibody 710 (other)
chain 1: B1 chain 2 with C254Y, S259C, S271W, A273L, V312Y, R340H, F341Y
chain 2: B2 chain 2
chain 3: B2 chain 3
B3: in test [1], the Kd was found to be 0.686 nM, the koff was 0.000127 s⁻¹ and the kon was determined as 186000 M⁻¹ s⁻¹. In test [2], the Kd came out at 4.48 nM, the koff turned out to be 0.00179 s⁻¹ and the kon came to 398000 M⁻¹ s⁻¹. Also, in test [3], the Kd was found to be 15.4 nM, the koff is 0.00383 s⁻¹ and the on-rate (kon) worked out at 249000 M⁻¹ s⁻¹.

B4: unilateral CD3/CEA-CAM6/HER2 trispecific antibody 709 (other)
chain 1: B2 chain 2 with C354Y, S359C, S371W, A373L, V412Y, R440H, F441Y
chain 2: B1 chain 2
chain 3: B2 chain 3
Regarding B4, the Kd in test [1] worked out at 0.351 nM; in test [2], 4.16 nM; in test [3], 20.7 nM. The koff in test [1] amounted to 6.18e-05 s⁻¹; in test [2] it was 0.0018 s⁻¹; in test [3], 0.00455 s⁻¹. Also, the kon in test [1] was 176000 M⁻¹ s⁻¹; in test [2], 433000 M⁻¹ s⁻¹; in test [3], 219000 M⁻¹ s⁻¹.

B5: CEA-BsAb (CD3 TA1-Fab x CEA VHH bispecific control antibody) (bispecific antibody, human IgG4 S228P, kappa, F234A L235A)
heavy: B2 chain 2 with C354Y, S359C, S371W, A373L, V412Y, R440H, F441Y
chain: B2 chain 1 with Y251C, C256S, W268S, L270A, Y309V, H337R, Y338F
light: B1 chain 3
On to B5, for which, in test [4], the Kd came to 1.64 nM, the koff turned out to be 0.00045 s⁻¹ and the association rate constant (kon) was 275000 M⁻¹ s⁻¹. Also, in test [6], the koff was 0.027 s⁻¹ and the association rate constant (kon) came out at 3680 M⁻¹ s⁻¹.
